Measured values published in the Human Domainome abundance scans (Beltran et al. 2025).
± gives the uncertainty stated by the source.

B1: Chromodomain-helicase-DNA-binding protein 4, residues 623 to 675; numbered along this chain, Q14839 (parent)
chain: MIHRILNHSVDKKGHVHYLIKWRDLPYDQASWESEDVEIQDYDLFKQSYWNHR

Variants of: B1
Assay: abundance fitness (aPCA) (normalised: wild type 0, dead -1); higher = more abundant; growth selection in yeast, the domain comes from the species named
Settings: Homo sapiens

| Variant | abundance fitness |
| --- | --- |
| H17I | -0.068 ± 0.13 |
| H17W | -0.302 ± 0.11 |
| H17V | -0.485 ± 0.085 |
| H17K | 0.094 ± 0.11 |
| H17P | -0.91 ± 0.25 |
| H17R | -0.174 ± 0.077 |
| H17Q | -0.098 ± 0.12 |
| H17E | -0.242 ± 0.093 |
| H17M | -0.034 ± 0.094 |
| H8I | -0.645 ± 0.12 |
| H8Q | -0.813 ± 0.2 |
| H8K | -0.956 ± 0.24 |
| H8T | -0.791 ± 0.21 |
| H8L | -0.806 ± 0.09 |
| H8M | -0.847 ± 0.14 |
| Y27K | -0.013 ± 0.14 |
| Y27P | 0.018 ± 0.092 |
| Y27I | 0.21 ± 0.089 |
| Y27E | -0.241 ± 0.19 |
| I5M | -0.746 ± 0.21 |
| I5W | -0.767 ± 0.2 |
| I5G | -0.933 ± 0.15 |
| I5D | -0.999 ± 0.2 |
| D28T | -0.098 ± 0.12 |

| Variant | abundance fitness |
| --- | --- |
| D28Q | -0.354 ± 0.14 |
| D28Y | -0.504 ± 0.14 |
| D28G | -0.179 ± 0.097 |
| Y49G | -0.811 ± 0.1 |
| Y49Q | -0.997 ± 0.21 |
| Y49V | -0.877 ± 0.1 |
| Y49P | -0.696 ± 0.15 |
| Y49M | -0.747 ± 0.13 |
| Y49A | -0.783 ± 0.12 |
| W22R | -0.855 ± 0.12 |
| W22C | -0.793 ± 0.14 |
| W22H | -0.733 ± 0.18 |
| W22K | -0.891 ± 0.23 |
| W22L | -0.795 ± 0.091 |
| W22S | -0.806 ± 0.097 |
| S34H | 0.136 ± 0.14 |
| S34T | -0.377 ± 0.11 |
| S34E | -0.004 ± 0.12 |
| S34P | -0.022 ± 0.1 |
| S34K | 0.086 ± 0.14 |
| S34Y | -0.731 ± 0.15 |
| I2E | -0.54 ± 0.3 |
| I2V | -0.589 ± 0.1 |
| I2A | -0.978 ± 0.15 |

| Variant | abundance fitness |
| --- | --- |
| I2K | -0.82 ± 0.16 |
| I2Y | -0.882 ± 0.16 |
| I2R | -0.734 ± 0.11 |
| I2H | -0.673 ± 0.11 |
| I2L | -0.879 ± 0.096 |
| D41S | -0.481 ± 0.09 |
| D41V | -0.81 ± 0.11 |
| D41H | -0.459 ± 0.19 |
| D41L | -0.846 ± 0.13 |
| V16H | -0.288 ± 0.16 |
| V16E | -0.545 ± 0.2 |
| V16T | -0.059 ± 0.1 |
| V16R | -0.309 ± 0.14 |
| V16K | -0.088 ± 0.12 |
| V16C | -0.22 ± 0.17 |
| P26I | -0.907 ± 0.27 |
| P26V | -0.762 ± 0.14 |
| P26W | -0.662 ± 0.15 |
| P26R | -0.533 ± 0.094 |
| P26Q | -0.602 ± 0.19 |
| P26K | -0.59 ± 0.14 |
| P26M | -0.761 ± 0.19 |
| N51S | -0.079 ± 0.1 |
| N51C | -0.428 ± 0.15 |

| Variant | abundance fitness |
| --- | --- |
| N51F | -0.11 ± 0.2 |
| N51T | 0.037 ± 0.13 |
| N51L | -0.194 ± 0.089 |
| N51W | -0.45 ± 0.12 |
| R53W | -0.044 ± 0.16 |
| R53L | -0.104 ± 0.21 |
| R53K | -0.22 ± 0.22 |
| R53H | -0.185 ± 0.3 |
| R53E | -0.189 ± 0.25 |
| R53Y | 0.011 ± 0.2 |
| R53T | -0.221 ± 0.18 |
| D11S | -0.305 ± 0.084 |
| D11Q | -0.928 ± 0.21 |
| D11T | -0.518 ± 0.097 |
| D11P | -0.913 ± 0.13 |
| D11M | -1.09 ± 0.28 |
| D11K | -1.03 ± 0.36 |
| D11Y | -0.792 ± 0.12 |
| D11R | -0.762 ± 0.12 |
| D11W | -0.694 ± 0.22 |
| M1R | -0.265 ± 0.22 |
| M1Q | -0.689 ± 0.48 |
| M1C | -0.25 ± 0.24 |
| M1F | -0.004 ± 0.19 |

| Variant | abundance fitness |
| --- | --- |
| M1H | -0.462 ± 0.31 |
| M1D | -0.452 ± 0.3 |
| K46Y | -0.856 ± 0.15 |
| K46N | -0.886 ± 0.16 |
| K46P | -0.875 ± 0.13 |
| K46F | -0.917 ± 0.17 |
| K46W | -0.856 ± 0.15 |
| K46T | -0.748 ± 0.13 |
| K46D | -0.886 ± 0.16 |
| K13A | -0.25 ± 0.085 |
| K13I | -0.588 ± 0.1 |
| K13Y | -0.214 ± 0.092 |
| K13C | -0.267 ± 0.093 |
| K13G | -0.335 ± 0.089 |
| K13W | -0.492 ± 0.16 |
| K13R | -0.196 ± 0.084 |
| L6A | -0.79 ± 0.12 |
| L6H | -0.76 ± 0.11 |
| L6K | -0.918 ± 0.26 |
| L6C | -0.333 ± 0.11 |
| L6I | -0.046 ± 0.087 |
| L6W | -1.07 ± 0.2 |
| L6M | -0.542 ± 0.17 |
| L6Y | -0.735 ± 0.12 |

| Variant | abundance fitness |
| --- | --- |
| W50E | -0.879 ± 0.17 |
| W50L | -0.811 ± 0.11 |
| W50I | -0.813 ± 0.21 |
| W50Y | -0.554 ± 0.25 |
| W50V | -0.783 ± 0.099 |
| W50G | -0.813 ± 0.083 |
| W50C | -0.793 ± 0.12 |
| Q40E | -0.061 ± 0.13 |
| Q40L | -0.271 ± 0.092 |
| Q40K | 0.041 ± 0.088 |
| E38T | -0.187 ± 0.098 |
| E38H | -0.324 ± 0.14 |
| E38W | -0.257 ± 0.12 |
| E38G | -0.227 ± 0.1 |
| E38M | -0.095 ± 0.13 |
| E38F | -0.113 ± 0.11 |
| K12W | -0.19 ± 0.15 |
| K12S | -0.074 ± 0.092 |
| K12V | -0.171 ± 0.1 |
| K12P | -0.083 ± 0.14 |
| L44P | -0.91 ± 0.098 |
| L44C | -0.293 ± 0.13 |
| L44K | 0.111 ± 0.2 |
| L44M | 0.085 ± 0.13 |

| Variant | abundance fitness |
| --- | --- |
| L44F | -0.201 ± 0.11 |
| L44Q | -0.11 ± 0.12 |
| L44G | -0.342 ± 0.073 |
| L44R | 0.058 ± 0.072 |
| L44E | -0.211 ± 0.15 |
| L44D | -0.16 ± 0.087 |
| L44W | -0.302 ± 0.18 |
| Y42K | -0.767 ± 0.49 |
| F45L | -0.388 ± 0.08 |
| F45T | -0.64 ± 0.12 |
| F45H | 0.119 ± 0.09 |
| F45Q | -0.71 ± 0.16 |
| F45M | -0.283 ± 0.13 |
| H15Y | -0.409 ± 0.11 |
| H15L | -0.171 ± 0.089 |
| H15E | -0.123 ± 0.13 |
| H15M | -0.134 ± 0.1 |
| H15N | 0.081 ± 0.12 |
| S48L | -0.01 ± 0.076 |
| S48Q | -0.053 ± 0.1 |
| S48E | 0.067 ± 0.087 |
| S48A | 0.07 ± 0.078 |
| S48K | 0.043 ± 0.097 |
